Experimental data: IntAct's records for PubMed 10097141

B1: Polycystin-2 (Homo sapiens), Q13563 (parent)
chain: MVNSSRVQPQQPGDAKRPPAPRAPDPGRLMAGCAAVGASLAAPGGLCEQRGLEIEMQRIRQAAARDPPAGAAASPSPPLSSCSRQAWSRDNPGFEAEEEEEEVEGEEGGMVVEMDVEWRPGSRRSAASSAVSSVGARSRGLGGYHGAGHPSGRRRRREDQGPPCPSPVGGGDPLHRHLPLEGQPPRVAWAERLVRGLRGLWGTRLMEESSTNREKYLKSVLRELVTYLLFLIVLCILTYGMMSSNVYYYTRMMSQLFLDTPVSKTEKTNFKTLSSMEDFWKFTEGSLLDGLYWKMQPSNQTEADNRSFIFYENLLLGVPRIRQLRVRNGSCSIPQDLRDEIKECYDVYSVSSEDRAPFGPRNGTAWIYTSEKDLNGSSHWGIIATYSGAGYYLDLSRTREETAAQVASLKKNVWLDRGTRATFIDFSVYNANINLFCVVRLLVEFPATGGVIPSWQFQPLKLIRYVTTFDFFLAACEIIFCFFIFYYVVEEILEIRIHKLHYFRSFWNCLDVVIVVLSVVAIGINIYRTSNVEVLLQFLEDQNTFPNFEHLAYWQIQFNNIAAVTVFFVWIKLFKFINFNRTMSQLSTTMSRCAKDLFGFAIMFFIIFLAYAQLAYLVFGTQVDDFSTFQECIFTQFRIILGDINFAEIEEANRVLGPIYFTTFVFFMFFILLNMFLAIINDTYSEVKSDLAQQKAEMELSDLIRKGYHKALVKLKLKKNTVDDISESLRQGGGKLNFDELRQDLKGKGHTDAEIEAIFTKYDQDGDQELTEHEHQQMRDDLEKEREDLDLDHSSLPRPMSSRSFPRSLDDSEEDDDEDSGHSSRRRGSISSGVSYEEFQVLVRRVDRMEHSIGSIVSKIDAVIVKLEIMERAKLKRREVLGRLLDGVAEDERLGRDSEIHREQMERLVREELERWESDDAASQISHGLGTPVGLNGQPRPRSSRPSSSQSTEGMEGAGGNGSSNVHV

Variants of: B1
Settings: with pkd1_human PKD1, P98161
Chain of pkd1_human PKD1, P98161 (P98161 whole entry, looked up): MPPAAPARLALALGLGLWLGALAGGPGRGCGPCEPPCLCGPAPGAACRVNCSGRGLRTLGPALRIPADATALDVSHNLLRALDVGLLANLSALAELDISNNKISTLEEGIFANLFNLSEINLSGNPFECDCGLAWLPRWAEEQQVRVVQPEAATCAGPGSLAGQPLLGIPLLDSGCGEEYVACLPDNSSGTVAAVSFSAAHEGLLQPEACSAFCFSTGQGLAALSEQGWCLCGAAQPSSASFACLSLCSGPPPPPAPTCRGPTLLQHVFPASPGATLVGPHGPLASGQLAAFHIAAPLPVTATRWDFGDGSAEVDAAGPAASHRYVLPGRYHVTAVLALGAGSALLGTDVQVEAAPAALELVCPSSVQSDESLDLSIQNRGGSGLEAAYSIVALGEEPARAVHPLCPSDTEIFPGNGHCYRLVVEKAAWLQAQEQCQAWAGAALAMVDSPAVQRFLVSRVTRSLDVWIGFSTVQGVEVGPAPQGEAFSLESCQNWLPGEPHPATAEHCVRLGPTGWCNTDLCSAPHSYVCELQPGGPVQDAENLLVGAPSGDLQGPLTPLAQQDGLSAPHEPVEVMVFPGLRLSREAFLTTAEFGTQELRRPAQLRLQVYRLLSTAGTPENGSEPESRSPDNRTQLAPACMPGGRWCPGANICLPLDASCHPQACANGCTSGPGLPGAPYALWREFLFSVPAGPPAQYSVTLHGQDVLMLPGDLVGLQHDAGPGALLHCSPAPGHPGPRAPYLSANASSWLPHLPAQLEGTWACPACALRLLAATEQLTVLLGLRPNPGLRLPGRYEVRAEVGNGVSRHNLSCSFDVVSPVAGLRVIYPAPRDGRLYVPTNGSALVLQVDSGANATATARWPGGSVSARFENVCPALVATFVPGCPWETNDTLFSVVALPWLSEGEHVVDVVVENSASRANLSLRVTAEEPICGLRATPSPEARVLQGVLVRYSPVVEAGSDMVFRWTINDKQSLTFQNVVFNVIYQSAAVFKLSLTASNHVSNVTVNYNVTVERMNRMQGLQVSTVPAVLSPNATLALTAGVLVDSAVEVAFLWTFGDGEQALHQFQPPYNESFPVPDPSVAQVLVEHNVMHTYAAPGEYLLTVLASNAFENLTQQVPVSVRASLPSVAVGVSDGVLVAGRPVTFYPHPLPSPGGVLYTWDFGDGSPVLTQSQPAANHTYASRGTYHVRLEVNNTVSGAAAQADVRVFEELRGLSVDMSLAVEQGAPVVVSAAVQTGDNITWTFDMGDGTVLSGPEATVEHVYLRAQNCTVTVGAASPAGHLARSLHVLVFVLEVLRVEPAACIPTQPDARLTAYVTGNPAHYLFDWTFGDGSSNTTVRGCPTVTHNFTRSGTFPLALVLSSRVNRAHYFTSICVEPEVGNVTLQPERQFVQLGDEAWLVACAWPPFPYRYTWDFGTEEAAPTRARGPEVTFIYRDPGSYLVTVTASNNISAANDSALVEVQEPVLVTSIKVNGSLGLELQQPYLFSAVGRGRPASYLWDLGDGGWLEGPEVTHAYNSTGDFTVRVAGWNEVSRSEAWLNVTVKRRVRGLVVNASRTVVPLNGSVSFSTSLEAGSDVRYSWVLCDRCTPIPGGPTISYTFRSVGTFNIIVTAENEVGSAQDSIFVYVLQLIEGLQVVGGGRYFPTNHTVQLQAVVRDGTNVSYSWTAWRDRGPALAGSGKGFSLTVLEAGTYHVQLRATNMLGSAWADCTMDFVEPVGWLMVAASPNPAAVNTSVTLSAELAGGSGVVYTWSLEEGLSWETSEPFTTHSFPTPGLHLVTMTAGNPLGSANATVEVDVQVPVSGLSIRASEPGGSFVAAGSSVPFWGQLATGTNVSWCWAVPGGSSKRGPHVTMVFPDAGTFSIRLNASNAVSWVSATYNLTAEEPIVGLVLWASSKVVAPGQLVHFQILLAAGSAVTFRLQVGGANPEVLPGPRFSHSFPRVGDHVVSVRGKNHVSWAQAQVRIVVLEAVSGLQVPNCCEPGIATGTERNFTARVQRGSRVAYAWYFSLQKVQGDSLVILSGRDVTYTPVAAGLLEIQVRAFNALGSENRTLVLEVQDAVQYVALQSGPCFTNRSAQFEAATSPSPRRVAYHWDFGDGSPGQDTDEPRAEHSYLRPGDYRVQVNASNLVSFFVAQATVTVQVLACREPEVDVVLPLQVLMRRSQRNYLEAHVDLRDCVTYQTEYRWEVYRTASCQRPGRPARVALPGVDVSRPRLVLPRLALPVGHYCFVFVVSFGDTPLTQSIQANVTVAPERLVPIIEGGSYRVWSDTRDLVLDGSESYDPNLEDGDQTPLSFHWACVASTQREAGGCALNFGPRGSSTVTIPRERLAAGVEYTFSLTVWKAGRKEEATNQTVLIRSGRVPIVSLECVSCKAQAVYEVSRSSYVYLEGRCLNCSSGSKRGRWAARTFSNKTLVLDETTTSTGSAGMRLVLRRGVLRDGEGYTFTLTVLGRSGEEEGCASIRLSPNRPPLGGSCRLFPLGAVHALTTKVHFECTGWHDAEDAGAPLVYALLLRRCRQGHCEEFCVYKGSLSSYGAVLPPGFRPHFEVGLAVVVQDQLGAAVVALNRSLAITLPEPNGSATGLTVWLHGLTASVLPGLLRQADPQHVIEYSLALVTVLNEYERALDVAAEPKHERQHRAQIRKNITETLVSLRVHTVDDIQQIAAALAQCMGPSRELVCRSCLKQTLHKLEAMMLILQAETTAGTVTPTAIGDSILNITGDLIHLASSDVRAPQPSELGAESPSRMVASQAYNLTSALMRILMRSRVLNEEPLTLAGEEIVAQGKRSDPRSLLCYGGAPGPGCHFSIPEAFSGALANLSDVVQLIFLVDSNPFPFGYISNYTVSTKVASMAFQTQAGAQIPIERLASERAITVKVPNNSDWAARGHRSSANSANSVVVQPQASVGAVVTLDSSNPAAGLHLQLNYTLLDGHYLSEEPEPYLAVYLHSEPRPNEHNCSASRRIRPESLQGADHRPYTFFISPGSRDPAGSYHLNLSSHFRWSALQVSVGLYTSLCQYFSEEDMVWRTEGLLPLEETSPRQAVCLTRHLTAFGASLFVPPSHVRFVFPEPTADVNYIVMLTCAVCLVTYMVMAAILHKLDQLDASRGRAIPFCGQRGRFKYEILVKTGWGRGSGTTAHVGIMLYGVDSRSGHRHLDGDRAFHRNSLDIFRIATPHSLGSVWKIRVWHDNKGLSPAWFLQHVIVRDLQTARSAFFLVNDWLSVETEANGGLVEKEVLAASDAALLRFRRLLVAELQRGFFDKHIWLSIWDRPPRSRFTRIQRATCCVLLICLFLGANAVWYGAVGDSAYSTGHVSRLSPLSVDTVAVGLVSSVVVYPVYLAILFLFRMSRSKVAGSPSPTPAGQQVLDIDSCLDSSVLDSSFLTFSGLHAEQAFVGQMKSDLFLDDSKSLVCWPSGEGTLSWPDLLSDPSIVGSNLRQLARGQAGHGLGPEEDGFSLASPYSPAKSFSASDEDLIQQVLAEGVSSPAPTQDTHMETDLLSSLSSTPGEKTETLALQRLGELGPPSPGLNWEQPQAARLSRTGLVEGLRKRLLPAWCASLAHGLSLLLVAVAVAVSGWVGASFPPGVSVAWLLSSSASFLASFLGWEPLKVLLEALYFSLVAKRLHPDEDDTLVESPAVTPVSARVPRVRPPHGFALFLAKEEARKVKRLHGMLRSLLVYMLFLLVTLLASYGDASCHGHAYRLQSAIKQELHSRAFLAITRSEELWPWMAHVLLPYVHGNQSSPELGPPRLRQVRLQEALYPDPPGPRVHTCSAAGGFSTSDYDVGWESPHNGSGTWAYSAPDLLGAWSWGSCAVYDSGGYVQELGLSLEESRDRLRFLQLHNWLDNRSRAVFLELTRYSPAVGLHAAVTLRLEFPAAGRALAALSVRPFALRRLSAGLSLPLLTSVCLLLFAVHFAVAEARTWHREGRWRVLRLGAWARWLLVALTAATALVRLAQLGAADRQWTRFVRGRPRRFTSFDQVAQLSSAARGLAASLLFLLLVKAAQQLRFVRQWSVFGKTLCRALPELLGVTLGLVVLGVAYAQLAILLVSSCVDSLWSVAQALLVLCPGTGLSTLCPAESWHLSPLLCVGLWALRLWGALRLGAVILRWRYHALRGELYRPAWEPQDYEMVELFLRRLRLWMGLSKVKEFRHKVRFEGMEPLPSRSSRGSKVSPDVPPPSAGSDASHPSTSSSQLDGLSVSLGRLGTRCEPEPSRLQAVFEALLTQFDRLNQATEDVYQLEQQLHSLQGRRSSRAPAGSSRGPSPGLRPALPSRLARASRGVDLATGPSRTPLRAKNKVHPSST

effect of a mutation on the interaction	Variant
disrupting interaction	L884H

Variants of: B1
Settings: with TRPC1, P48995-2
Chain of TRPC1, P48995-2 (P48995 other isoform, or with tags, fused parts or gaps): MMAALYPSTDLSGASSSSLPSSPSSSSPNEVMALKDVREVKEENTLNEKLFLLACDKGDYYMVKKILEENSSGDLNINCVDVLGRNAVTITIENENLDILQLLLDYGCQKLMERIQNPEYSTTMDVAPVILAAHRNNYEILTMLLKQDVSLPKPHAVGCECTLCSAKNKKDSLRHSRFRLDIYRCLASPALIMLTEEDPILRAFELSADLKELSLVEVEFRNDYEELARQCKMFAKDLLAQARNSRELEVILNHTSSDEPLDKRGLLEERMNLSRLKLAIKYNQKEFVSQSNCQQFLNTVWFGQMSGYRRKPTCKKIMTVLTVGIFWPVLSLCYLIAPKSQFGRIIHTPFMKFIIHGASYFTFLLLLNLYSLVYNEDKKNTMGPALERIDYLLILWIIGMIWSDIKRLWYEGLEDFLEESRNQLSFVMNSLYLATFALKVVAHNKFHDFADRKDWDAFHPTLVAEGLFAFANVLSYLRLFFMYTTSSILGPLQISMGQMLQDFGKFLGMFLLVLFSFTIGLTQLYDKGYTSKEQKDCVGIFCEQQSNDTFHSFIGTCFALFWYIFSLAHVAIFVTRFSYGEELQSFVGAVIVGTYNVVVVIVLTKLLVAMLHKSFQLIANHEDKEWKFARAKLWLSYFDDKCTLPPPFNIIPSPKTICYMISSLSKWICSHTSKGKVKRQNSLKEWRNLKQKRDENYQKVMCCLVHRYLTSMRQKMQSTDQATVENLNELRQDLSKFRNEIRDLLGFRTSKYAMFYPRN

effect of a mutation on the interaction	Variant
disrupting interaction	D886A
